Source: ChEMBL document CHEMBL2073795, “Secretory mechanisms of grepafloxacin and levofloxacin in the human intestinal cell line caco-2” (J Pharmacol Exp Ther, 2000)

Tested on: Cc1c(F)c(N2CCNC(C)C2)cc2c1c(=O)c(C(=O)O)cn2C1CC1
Test: TP_TRANSPORTER: transepithelial transport (basal to apical) in Caco-2 cells
Assay type: functional, cell-based

In the case of “ATP-dependent translocase ABCB1 (Homo sapiens)”, the Km was 580 µM.
